Publication PMC5914118, “Exploiting the Concept of Multivalency with ^68Ga- and ^89Zr-Labelled Fusarinine C-Minigastrin Bioconjugates for Targeting CCK2R Expression” (Contrast Media & Molecular Imaging, 2018)
Marks after values point to notes of the source that are not given here.

Key:
[1] = format: physicochemical
Protocol: Aliquots (50 μL) of ^68Ga- and ^89Zr-labelled mono-, di-, and trimer (10 μM) were diluted in 450 μL PBS. After adding 500 μL octanol the mixture was vortexed with 1400 rpm (MS 3 basic vortexer, IKA, Staufen, Germany) for 15 min at RT followed by centrifugation for 2 min at 4500 rpm. Subsequently, 100 μL aliquots of the organic and the aqueous layer were collected and logD values were calculated using Excel (n = 3, six replicates) after gamma counter measurement.

[2] = system: A431-CCK2R/A431-mock tumour xenografted BALB/c nude mice; details: mouse, in vivo; for Biodistribution: A431-CCK2R tumour (receptor positive) / Biodistribution: A431-mock tumour (receptor negative) / Biodistribution: Blood / Biodistribution: Bone / Biodistribution: Heart / Biodistribution: Intestine / Biodistribution: Kidneys / Biodistribution: Liver / Biodistribution: Lung / Biodistribution: Muscle / Biodistribution: Pancreas / Biodistribution: Spleen / Biodistribution: Stomach: 1 h
Protocol: All animal experiments were conducted in compliance with the Austrian and Dutch animal protection laws and with approval of the Austrian Ministry of Science (BMWF-66.011/000604-II/3b/2012 and BMWFW-66.011/0049-WF/II/3b/2014). In vivo stability studies were conducted in 5-week-old female BALB/c mice (in-house breed, ZVTA Innsbruck, Dr. Hermann Dietrich). The biodistribution studies were performed using female 8−10-week-old athymic BALB/c nude mice (Charles River Laboratories, Sulzfeld, Germany). Tumour xenografts were induced by subcutaneous injection of 2 × 10^6 A431-CCK2R cells (receptor positive) in the right and the same amount of A431-mock (receptor negative) in the left flank. Tumours were allowed to grow until they had reached a volume of 0.3–0.6 cm^3. To evaluate the biodistribution profile nude mice (n = 4) were intravenously injected with either 1-2 MBq ^68Ga- or 0.3 MBq ^89Zr-labelled mono-, di-, and trimer (0.1–0.2 nmol). The animals were sacrificed by cervical dislocation after 1 h as well as 2 h and 4 h in case of ^68Ga- and ^89Zr-labelled trimer, followed by the collection of organs and tissue. The collected samples were measured in the gamma counter and the results were calculated as percentage of injected dose per gram tissue (% ID/g).

Row | SMILES | Distribution coefficient logD (pH 7.4) [1] | Tumour-to-organ ratio (T/O): A431-mock [2] | Tumour-to-organ ratio (T/O): Blood [2] | Tumour-to-organ ratio (T/O): Bone [2] | Tumour-to-organ ratio (T/O): Heart [2] | Tumour-to-organ ratio (T/O): Intestine [2] | Tumour-to-organ ratio (T/O): Kidneys [2] | Tumour-to-organ ratio (T/O): Liver [2] | Tumour-to-organ ratio (T/O): Lung [2] | Tumour-to-organ ratio (T/O): Muscle [2] | Tumour-to-organ ratio (T/O): Pancreas [2] | Tumour-to-organ ratio (T/O): Spleen [2] | Tumour-to-organ ratio (T/O): Stomach [2] | Biodistribution: A431-CCK2R tumour (receptor positive) [2] | Biodistribution: A431-mock tumour (receptor negative) [2] | Biodistribution: Blood [2] | Biodistribution: Bone [2] | Biodistribution: Heart [2] | Biodistribution: Intestine [2] | Biodistribution: Kidneys [2] | also measured
1 | CSCC[C@H](NC(=O)[C@H](Cc1c[nH]c2ccccc12)NC(=O)CNC(=O)[C@H](Cc1ccc(O)cc1)NC(=O)[C@H](C)NC(=O)[C@@H](CCC(=O)O)NC(=O)CCSC1CC(=O)N(CCC(=O)NC2CCCN(O)C(=O)C=C(C)CCOC(=O)C(NC(=O)CCN3C(=O)CC(SCCC(=O)N[C@H](CCC(=O)O)C(=O)N[C@@H](C)C(=O)N[C@@H](Cc4ccc(O)cc4)C(=O)NCC(=O)N[C@@H](Cc4c[nH]c5ccccc45)C(=O)N[C@@H](CCSC)C(=O)N[C@@H](CC(=O)O)C(=O)N[C@@H](Cc4ccccc4)C(N)=O)C3=O)CCCN(O)C(=O)C=C(C)CCOC(=O)C(NC(C)=O)CCCN(O)C(=O)C=C(C)CCOC2=O)C1=O)C(=O)N[C@@H](CC(=O)O)C(=O)N[C@@H](Cc1ccccc1)C(N)=O (stereo partly shown) [^68Ga-labelled Dimer, metal not drawn] | −2.38 ± 0.04 | 17.9 ± 6.1^c | 16.0 ± 3.1^cd | 11.6 ± 1.9^c | 27.2 ± 4.8^cd | 19.9 ± 4.9^acd | 0.30 ± 0.06^cd | 11.1 ± 2.4^c | 14.4 ± 2.3^cd | 31.4 ± 13.2^cd | 17.9 ± 3.2^cd | 23.1 ± 4.2^cd | 4.0 ± 0.5^c | 8.36 ± 0.90^ac % ID/g | 0.36 ± 0.22^cd % ID/g | 0.53 ± 0.06^cd % ID/g | 0.60 ± 0.21^cd % ID/g | 0.31 ± 0.04^cd % ID/g | 0.44 ± 0.06^c % ID/g | 28.9 ± 3.4^cd % ID/g | Biodistribution: Liver [2]: 0.78 ± 0.09^c % ID/g; Biodistribution: Lung [2]: 0.59 ± 0.08^cd % ID/g; Biodistribution: Muscle [2]: 0.30 ± 0.08^cd % ID/g; Biodistribution: Pancreas [2]: 0.48 ± 0.06^cd % ID/g; Biodistribution: Spleen [2]: 0.37 ± 0.04^cd % ID/g; Biodistribution: Stomach [2]: 2.13 ± 0.23^c % ID/g
2 | CSCC[C@H](NC(=O)[C@H](Cc1c[nH]c2ccccc12)NC(=O)CNC(=O)[C@H](Cc1ccc(O)cc1)NC(=O)[C@H](C)NC(=O)[C@@H](CCC(=O)O)NC(=O)CCSC1CC(=O)N(CCC(=O)NC2CCCN(O)C(=O)C=C(C)CCOC(=O)C(NC(C)=O)CCCN(O)C(=O)C=C(C)CCOC(=O)C(NC(C)=O)CCCN(O)C(=O)C=C(C)CCOC2=O)C1=O)C(=O)N[C@@H](CC(=O)O)C(=O)N[C@@H](Cc1ccccc1)C(N)=O (stereo partly shown) [^68Ga-labelled Monomer, metal not drawn] | −2.99 ± 0.02 | 16.3 ± 3.3^bd | 14.4 ± 3.6^b | 17.1 ± 7.4^bd | 29.5 ± 9.3^bd | 9.4 ± 3.7^b | 0.86 ± 0.13^abd | 21.1 ± 3.1^abd | 11.7 ± 2.1^bd | 20.4 ± 1.8^b | 16.7 ± 3.0^bd | 27.3 ± 6.3^b | 4.6 ± 1.1^b | 4.86 ± 1.00^d % ID/g | 0.30 ± 0.04^b % ID/g | 0.35 ± 0.06^ab % ID/g | 0.31 ± 0.08^b % ID/g | 0.17 ± 0.02^ab % ID/g | 0.58 ± 0.17^b % ID/g | 5.57 ± 0.57^abd % ID/g | Biodistribution: Liver [2]: 0.23 ± 0.02^ab % ID/g; Biodistribution: Lung [2]: 0.42 ± 0.06^ab % ID/g; Biodistribution: Muscle [2]: 0.20 ± 0.05^b % ID/g; Biodistribution: Pancreas [2]: 0.29 ± 0.02^ab % ID/g; Biodistribution: Spleen [2]: 0.18 ± 0.04^ab % ID/g; Biodistribution: Stomach [2]: 1.07 ± 0.14^ab % ID/g
